Laboratory results as given in patent US20220064248A1, “PHARMACEUTICAL COMPOSITION INCLUDING INSULIN AND GLUCAGON” (HANMl PHARM. CO., LTD, priority 2018, published 2022).
Bridges are numbered along the chain shown (N, C = ends). Where no end group is shown, it is not given here. [ ]: non-standard residue; d: D form. Aib = CC(C)(N)C(=O)O

Biological target: glucagon receptors (Homo sapiens, UniProt P47871)
Test: In vitro activity of glucagon analogs relative to native glucagon
Type: cell-based
Conditions: relative to native glucagon (SEQ ID NO: 1)
Protocol: The glucagon analogs were synthesized with reference to Korean Patent Publication Nos. 10-2016-0082482, 10-2017-003466, and 10-2018-0002544, and pl and in vitro activity thereof were measured.

Chain of glucagon receptors (P47871 26-477): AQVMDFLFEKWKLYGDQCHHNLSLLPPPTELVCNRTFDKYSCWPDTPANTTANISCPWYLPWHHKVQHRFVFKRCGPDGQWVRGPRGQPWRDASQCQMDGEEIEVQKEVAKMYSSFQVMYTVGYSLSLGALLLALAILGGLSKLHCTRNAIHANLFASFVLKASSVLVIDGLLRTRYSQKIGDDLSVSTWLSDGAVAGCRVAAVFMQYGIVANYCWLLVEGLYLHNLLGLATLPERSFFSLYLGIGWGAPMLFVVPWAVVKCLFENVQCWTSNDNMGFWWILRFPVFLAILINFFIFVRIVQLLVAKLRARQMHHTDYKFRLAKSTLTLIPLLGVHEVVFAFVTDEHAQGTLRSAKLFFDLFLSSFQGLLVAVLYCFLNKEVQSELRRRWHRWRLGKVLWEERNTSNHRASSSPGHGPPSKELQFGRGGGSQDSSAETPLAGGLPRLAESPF

In vitro activity (relative activity to SEQ ID NO: 1, %) | Substance
0.7% | -SQGTFTSDYSKYLDECRAKEFVQWLMNT (lactam 15-19; also: name begins with '-' (N-terminal residue not shown)) [SEQ ID NO: 32]
0.6% | HSQGTFTSDYSKYLDCDRAQDFVQWLMNT (glucagon derivative) [SEQ ID NO: 2]
6.1% | HSQGTFTSDYSKYLDCERAQDFVQWLMNT (glucagon derivative) [SEQ ID NO: 3]
<0.1% | HSQGTFTSDYSKYLDSCDAQDFVQWLMNT (glucagon derivative) [SEQ ID NO: 4]
<0.1% | HSQGTFTSDYSKYLDSCEADDFVQWLMNT (glucagon derivative) [SEQ ID NO: 6]
0.3% | HSQGTFTSDYSKYLDSCEAQDFVQWLMNT (glucagon derivative) [SEQ ID NO: 5]
0.3% | WXQGTFTSDYSKCLDERRAKDFVQWLMNT (W[Aib]QGTFTSDYSKCLDERRAKDFVQWLMNT; lactam 16-20) [SEQ ID NO: 30]
0.2% | WXQGTFTSDYSKYCDERRAKEFVQWLMNT (W[Aib]QGTFTSDYSKYCDERRAKEFVQWLMNT; lactam 16-20) [SEQ ID NO: 34]
1.0% | WXQGTFTSDYSKYLDECRAKDFVQWLMNT (W[Aib]QGTFTSDYSKYLDECRAKDFVQWLMNT; lactam 16-20) [SEQ ID NO: 26]
<0.1% | WXQGTFVSDYSKYLDECRAKDFVQWLMNT (W[Aib]QGTFVSDYSKYLDECRAKDFVQWLMNT; lactam 16-20) [SEQ ID NO: 28]
<0.1% | YSQGTFTSDYSKYLDSCEADDFVQWLMNT (glucagon derivative) [SEQ ID NO: 7]
45.2% | YXQGTFCSDYSKYLDERRAKDFVQWLMNT (Y[Aib]QGTFCSDYSKYLDERRAKDFVQWLMNT; lactam 16-20) [SEQ ID NO: 41]
167.3% | YXQGTFCSDYSKYLDERRAKEFVQWLMNT (Y[Aib]QGTFCSDYSKYLDERRAKEFVQWLMNT; lactam 16-20) [SEQ ID NO: 38]
37.9% | YXQGTFCSDYSKYLDSRRAQDFVQWLMNT (Y[Aib]QGTFCSDYSKYLDSRRAQDFVQWLMNT) [SEQ ID NO: 42]
9.9% | YXQGTFTSDCSKYLDERRAKEFVQWLMNT (Y[Aib]QGTFTSDCSKYLDERRAKEFVQWLMNT; lactam 16-20) [SEQ ID NO: 36]
1.6% | YXQGTFTSDCSKYLDSRRAQDFVQWLMNT (Y[Aib]QGTFTSDCSKYLDSRRAQDFVQWLMNT) [SEQ ID NO: 43]
5.2% | YXQGTFTSDYSCYLDSRRAQDFVQWLMNT (Y[Aib]QGTFTSDYSCYLDSRRAQDFVQWLMNT) [SEQ ID NO: 13]
58.0% | YXQGTFTSDYSKCLDEKRAKEFVQWLMNT (Y[Aib]QGTFTSDYSKCLDEKRAKEFVQWLMNT; lactam 16-20) [SEQ ID NO: 24]
61.3% | YXQGTFTSDYSKCLDERRAKDFVQWLMNT (Y[Aib]QGTFTSDYSKCLDERRAKDFVQWLMNT; lactam 16-20) [SEQ ID NO: 29]
76.8% | YXQGTFTSDYSKYCDEKRAKEFVQWLMNT (Y[Aib]QGTFTSDYSKYCDEKRAKEFVQWLMNT; lactam 16-20) [SEQ ID NO: 23]
17.7% | YXQGTFTSDYSKYCDERRAKEFVQWLMNT (Y[Aib]QGTFTSDYSKYCDERRAKEFVQWLMNT; lactam 16-20) [SEQ ID NO: 35]
12.1% | YXQGTFTSDYSKYLCEKRAKEFVQWLMNT (Y[Aib]QGTFTSDYSKYLCEKRAKEFVQWLMNT; lactam 16-20) [SEQ ID NO: 19]

In vitro activity (relative activity to SEQ ID NO: 1, %) | Substance
1.1% | YXQGTFTSDYSKYLCEKRAQDFVVWLMNT (Y[Aib]QGTFTSDYSKYLCEKRAQDFVVWLMNT) [SEQ ID NO: 15]
6.3% | YXQGTFTSDYSKYLDCKRAKEFVQWLMNT (Y[Aib]QGTFTSDYSKYLDCKRAKEFVQWLMNT; lactam 17-21) [SEQ ID NO: 31]
18.1% | YXQGTFTSDYSKYLDCKRAKEFVQWLMNT [SEQ ID NO: 14] (Y[Aib]QGTFTSDYSKYLDCKRAKEFVQWLMNT; not fully specified (bridges); also: lactam ring between underlined residues, places not shown)
4.2% | YXQGTFTSDYSKYLDCRRAQVFVQWLMRT (Y[Aib]QGTFTSDYSKYLDCRRAQVFVQWLMRT) [SEQ ID NO: 16]
23.2% | YXQGTFTSDYSKYLDCVRAQDFVQWLMRT (Y[Aib]QGTFTSDYSKYLDCVRAQDFVQWLMRT) [SEQ ID NO: 17]
299.7% | YXQGTFTSDYSKYLDECRAKEFVQWLMNT (Y[Aib]QGTFTSDYSKYLDECRAKEFVQWLMNT; lactam 16-20) [SEQ ID NO: 20]
4.6% | YXQGTFTSDYSKYLDEKCAKEFVQWLMNT [SEQ ID NO: 11] (Y[Aib]QGTFTSDYSKYLDEKCAKEFVQWLMNT; not fully specified (bridges); also: lactam ring between underlined residues, places not shown)
57.8% | YXQGTFTSDYSKYLDEKCAKEFVQWLMNT [SEQ ID NO: 21] (Y[Aib]QGTFTSDYSKYLDEKCAKEFVQWLMNT; lactam 16-20)
46.9% | YXQGTFTSDYSKYLDEKRAKCFVQWLMNT (Y[Aib]QGTFTSDYSKYLDEKRAKCFVQWLMNT; lactam 16-20) [SEQ ID NO: 25]
56.3% | YXQGTFTSDYSKYLDEKRAKEFVQWLMNTC (Y[Aib]QGTFTSDYSKYLDEKRAKEFVQWLMNTC; lactam 16-20) [SEQ ID NO: 12]
147.8% | YXQGTFTSDYSKYLDEKRCKEFVQWLMNT (Y[Aib]QGTFTSDYSKYLDEKRCKEFVQWLMNT; lactam 16-20) [SEQ ID NO: 22]
225.5% | YXQGTFTSDYSKYLDERRAKEFVQWLMNTC (Y[Aib]QGTFTSDYSKYLDERRAKEFVQWLMNTC; lactam 16-20) [SEQ ID NO: 37]
<0.1% | YXQGTFTSDYSKYLDSCDADDFVVWLINT (Y[Aib]QGTFTSDYSKYLDSCDADDFVVWLINT) [SEQ ID NO: 10]
<0.1% | YXQGTFTSDYSKYLDSCDAQDFVQWLINT (Y[Aib]QGTFTSDYSKYLDSCDAQDFVQWLINT) [SEQ ID NO: 8]
<0.1% | YXQGTFTSDYSKYLDSCDAQDFVVWLINT (Y[Aib]QGTFTSDYSKYLDSCDAQDFVVWLINT) [SEQ ID NO: 9]
<0.1% | YXQGTFTSDYSKYLDSRRACDFRLWLMNT (Y[Aib]QGTFTSDYSKYLDSRRACDFRLWLMNT) [SEQ ID NO: 18]
108.2% | YXQGTFTSDYSKYLDSRRAQDFVQWLMNT (X non-natural residue; glucagon derivative; (2) Xaa is aminoisobutyric acid (Aib)) [SEQ ID NO: 33]
75.4% | YXQGTFTSDYSKYLDSRRAQDFVQWLMNTC (glucagon derivative; (2) Xaa is aminoisobutyric acid (Aib)) [SEQ ID NO: 44]
3.7% | YXQGTFVSDCSKYLDERRAKDFVQWLMNT (Y[Aib]QGTFVSDCSKYLDERRAKDFVQWLMNT; lactam 16-20) [SEQ ID NO: 39]
93.6% | YXQGTFVSDYSKYLDECRAKDFVQWLMNT (Y[Aib]QGTFVSDYSKYLDECRAKDFVQWLMNT; lactam 16-20) [SEQ ID NO: 27]
40.8% | YXQGTFVSDYSKYLDERRAKDFVQWLMNTC (Y[Aib]QGTFVSDYSKYLDERRAKDFVQWLMNTC; lactam 16-20) [SEQ ID NO: 40]
